Patent publication US20110251255

Target: recombinant cofilin (His-tagged fusion protein of human cofilin), P23528
Sequence (P23528 whole entry, the tested form may be a part): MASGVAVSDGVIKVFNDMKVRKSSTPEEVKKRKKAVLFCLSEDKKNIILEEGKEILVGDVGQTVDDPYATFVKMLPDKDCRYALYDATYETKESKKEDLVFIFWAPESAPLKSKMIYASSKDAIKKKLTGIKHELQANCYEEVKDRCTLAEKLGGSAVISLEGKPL

B1: LIM kinase 1 (protein)
chain: MRLTLLCCTWREERMGEEGSELPVCASCGQRIYDGQYLQALNADWHADCFRCCDCSASLSHQYYEKDGQLFCKKDYWARYGESCHGCSEQITKGLVMVAGELKYHPECFICLTCGTFIGDGDTYTLVEHSKLYCGHCYYQTVVTPVIEQILPDSPGSHLPHTVTLVSIPASSHGKRGLSVSIDPPHGPPGCGTEHSHTVRVQGVDPGCMSPDVKNSIHVGDRILEINGTPIRNVPLDEIDLLIQETSRLLQLTLEHDPHDTLGHGLGPETSPLSSPAYTPSGEAGSSARQKPVLRSCSIDRSPGAGSLGSPASQRKDLGRSESLRVVCRPHRIFRPSDLIHGEVLGKGCFGQAIKVTHRETGEVMVMKELIRFDEETQRTFLKEVKVMRCLEHPNVLKFIGVLYKDKRLNFITEYIKGGTLRGIIKSMDSQYPWSQRVSFAKDIASGMAYLHSMNIIHRDLNSHNCLVRENKNVVVADFGLARLMVDEKTQPEGLRSLKKPDRKKRYTVVGNPYWMAPEMINGRSYDEKVDVFSFGIVLCEIIGRVNADPDYLPRTMDFGLNVRGFLDRYCPPNCPPSFFPITVRCCDLDPEKRPSFVKLEHWLETLRMHLAGHLPLGPQLEQLDRGFWETYRRGESGLPAHPEVPD
For B1, the “in vitro phosphorylation of recombinant cofilin (immune complex kinase assay, autoradiography)” value was “immunoprecipitated LIMK1 (FIG. 2, a and b) from PC3 cells was capable of phosphorylating recombinant cofilin (FIG. 2c)”.
